What all share (conditions): both partners purified
The target in assay [1] is T1, recombinant KLHL37-His protein (UniProt O14682 1-589).
T1 construct: Kelch-like protein 37 (KLHL37), also known as ectodermal-neural cortex 1 (ENC1); also called rKLHL37-His; KLHL37-His (6x); source: E. coli BL21, purified (HisTrap HP)
T1 sequence (looked up): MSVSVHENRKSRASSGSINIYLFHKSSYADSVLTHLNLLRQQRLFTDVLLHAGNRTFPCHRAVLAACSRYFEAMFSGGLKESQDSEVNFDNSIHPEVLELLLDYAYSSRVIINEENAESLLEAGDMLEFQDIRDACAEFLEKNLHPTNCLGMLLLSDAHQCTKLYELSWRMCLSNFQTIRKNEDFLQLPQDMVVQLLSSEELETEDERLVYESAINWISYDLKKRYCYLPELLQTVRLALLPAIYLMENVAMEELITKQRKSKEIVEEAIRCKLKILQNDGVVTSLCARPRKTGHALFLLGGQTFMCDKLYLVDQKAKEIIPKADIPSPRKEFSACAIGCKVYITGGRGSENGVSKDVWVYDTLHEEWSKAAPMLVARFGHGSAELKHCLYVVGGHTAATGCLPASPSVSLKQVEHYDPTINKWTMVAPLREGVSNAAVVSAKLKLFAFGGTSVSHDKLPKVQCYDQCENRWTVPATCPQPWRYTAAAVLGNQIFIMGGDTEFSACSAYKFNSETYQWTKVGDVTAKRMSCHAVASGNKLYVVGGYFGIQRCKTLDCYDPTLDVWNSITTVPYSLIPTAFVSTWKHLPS
Description: pull-down; in vitro co-IP: recombinant KLHL37-His incubated with GST fusion protein at RT (25°C) for 3 hours, then GST resin (preblocked with 1% BSA); IP: GST, IB: KLHL37.

The target of assay [2] is T2, KLHL37-His recombinant protein (UniProt O14682 1-589).
T2 construct: Kelch-like protein 37 (KLHL37, ENC1); the methods name only KLHL37-His; also called recombinant KLHL37; KLHL37-His (6×); source: E. coli BL21, purified (HisTrap HP)
T2 sequence (looked up): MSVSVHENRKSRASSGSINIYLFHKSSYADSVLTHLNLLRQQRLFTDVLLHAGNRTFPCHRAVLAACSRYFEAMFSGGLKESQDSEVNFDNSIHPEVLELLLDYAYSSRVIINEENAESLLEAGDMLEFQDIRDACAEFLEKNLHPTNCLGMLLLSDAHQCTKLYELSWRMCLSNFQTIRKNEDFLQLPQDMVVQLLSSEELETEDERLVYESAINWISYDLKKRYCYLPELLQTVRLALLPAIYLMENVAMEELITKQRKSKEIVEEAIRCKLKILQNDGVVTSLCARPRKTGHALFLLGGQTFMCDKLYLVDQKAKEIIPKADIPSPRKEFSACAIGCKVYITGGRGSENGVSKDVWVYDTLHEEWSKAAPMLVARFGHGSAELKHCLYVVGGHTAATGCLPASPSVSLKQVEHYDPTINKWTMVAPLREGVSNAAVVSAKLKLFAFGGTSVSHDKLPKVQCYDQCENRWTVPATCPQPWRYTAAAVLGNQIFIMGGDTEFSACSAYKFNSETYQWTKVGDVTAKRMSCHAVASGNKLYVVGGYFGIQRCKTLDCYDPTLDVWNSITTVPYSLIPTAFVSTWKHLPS
Description: pull-down; in vitro co-IP: recombinant KLHL37-His incubated with GST or GST–N-Myc at RT (25°C) for 3 hours, then GST resin preblocked with 1% BSA.

Assay [3] concerns the target T2, KLHL37-His recombinant protein. Description: MST; GFP–N-Myc or GFP–C-Myc at 200 nM in PBS-T (0.05% Tween 20); KLHL37-His serially diluted 16 times from 27.3 nM (N-Myc) or 7 μM (C-Myc); mixed 1:1; EC50 fitted.

B1: recombinant GST-N-Myc protein (natural protein, UniProt P04198 1-464, looked up)
chain: MPSCSTSTMPGMICKNPDLEFDSLQPCFYPDEDDFYFGGPDSTPPGEDIWKKFELLPTPPLSPSRGFAEHSSEPPSWVTEMLLENELWGSPAEEDAFGLGGLGGLTPNPVILQDCMWSGFSAREKLERAVSEKLQHGRGPPTAGSTAQSPGAGAASPAGRGHGGAAGAGRAGAALPAELAHPAAECVDPAVVFPFPVNKREPAPVPAAPASAPAAGPAVASGAGIAAPAGAPGVAPPRPGGRQTSGGDHKALSTSGEDTLSDSDDEDDEEEDEEEEIDVVTVEKRRSSSNTKAVTTFTITVRPKNAALGPGRAQSSELILKRCLPIHQQHNYAAPSPYVESEDAPPQKKIKSEASPRPLKSVIPPKAKSLSPRNSDSEDSERRRNHNILERQRRNDLRSSFLTLRDHVPELVKNEKAAKVVILKKATEYVHSLQAEEHQLLLEKEKLQARQQQLLKKIEHARTC
notes: N-Myc; also called rGST-N-Myc; source: SF9 insect cells (baculovirus), purified (GST TRAP HP); not shown: GST, N-terminal, kept
B1: the binding result in assay [1] is reported as “binds”.

B2: GST–N-Myc recombinant protein (natural protein, UniProt P04198 1-464, looked up)
chain: MPSCSTSTMPGMICKNPDLEFDSLQPCFYPDEDDFYFGGPDSTPPGEDIWKKFELLPTPPLSPSRGFAEHSSEPPSWVTEMLLENELWGSPAEEDAFGLGGLGGLTPNPVILQDCMWSGFSAREKLERAVSEKLQHGRGPPTAGSTAQSPGAGAASPAGRGHGGAAGAGRAGAALPAELAHPAAECVDPAVVFPFPVNKREPAPVPAAPASAPAAGPAVASGAGIAAPAGAPGVAPPRPGGRQTSGGDHKALSTSGEDTLSDSDDEDDEEEDEEEEIDVVTVEKRRSSSNTKAVTTFTITVRPKNAALGPGRAQSSELILKRCLPIHQQHNYAAPSPYVESEDAPPQKKIKSEASPRPLKSVIPPKAKSLSPRNSDSEDSERRRNHNILERQRRNDLRSSFLTLRDHVPELVKNEKAAKVVILKKATEYVHSLQAEEHQLLLEKEKLQARQQQLLKKIEHARTC
notes: N-Myc; source: SF9 insect cells (baculovirus), purified (GST TRAP HP); not shown: GST, N-terminal, kept
For the molecule B2, in assay [2], the binding result is “binds”.

B3: recombinant GFP–N-Myc (natural protein, UniProt P04198 1-464, looked up)
chain: MPSCSTSTMPGMICKNPDLEFDSLQPCFYPDEDDFYFGGPDSTPPGEDIWKKFELLPTPPLSPSRGFAEHSSEPPSWVTEMLLENELWGSPAEEDAFGLGGLGGLTPNPVILQDCMWSGFSAREKLERAVSEKLQHGRGPPTAGSTAQSPGAGAASPAGRGHGGAAGAGRAGAALPAELAHPAAECVDPAVVFPFPVNKREPAPVPAAPASAPAAGPAVASGAGIAAPAGAPGVAPPRPGGRQTSGGDHKALSTSGEDTLSDSDDEDDEEEDEEEEIDVVTVEKRRSSSNTKAVTTFTITVRPKNAALGPGRAQSSELILKRCLPIHQQHNYAAPSPYVESEDAPPQKKIKSEASPRPLKSVIPPKAKSLSPRNSDSEDSERRRNHNILERQRRNDLRSSFLTLRDHVPELVKNEKAAKVVILKKATEYVHSLQAEEHQLLLEKEKLQARQQQLLKKIEHARTC
notes: N-Myc; also called rGFP–N-Myc; source: E. coli BL21
With B3, in assay [3], the binding result was “binds”.

For the origin of these results see publication PMC12259267, “Disruption of the KLHL37–N-Myc complex restores N-Myc degradation and arrests neuroblastoma growth in mouse models” (The Journal of Clinical Investigation, 2025).
